One may read the Kd as the equilibrium constant for the complex coming apart. The low end stands for a tighter complex, the high end for a looser complex. By stoichiometry N is commonly meant a count of units in the complex or per binding partner.

Results on two molecules are retold here after publication PMC5316958, “A combination of mutational and computational scanning guides the design of an artificial ligand-binding controlled lipase” (Scientific Reports, 2017).

The target in data set [1] is T1, Bacillus subtilis lipase A (BsLA) (Bacillus subtilis, UniProt P37957).
T1 construct: gene estA; purified wild-type BsLA
Kind of data set: hydrolysis of p-NPB by purified enzyme, p-nitrophenolate release at […] nm (specific activity). It is filed as biochemical.

The data set “SAXS” deals with the molecule itself. Kind of data set: SAXS.
Data set [2] concerns the molecule itself. Kind of data set: AUC; sedimentation velocity, CitAP-BsLA 0.5 mg/ml, 10 mM glycine buffer pH 10, 10 mM NaCl, with or without 1 mM sodium citrate, 25 °C, 40 krpm; c(s) with Bayesian prior, discrete species of known mass; monomer, dimer and higher oligomers.

Several values for one entry are separate records, joined by “and”; a condition that tells them apart may be missing. Identical values can stand only once.

As for `CCCC(=O)Oc1ccc([N+](=O)[O-])cc1` [p-nitrophenylbutyrate], the “hydrolysis of p-NPB by purified enzyme, p-nitrophenolate release at 410 nm (spec)” value in data set [1] is reported as 181 ± 3 U/mg.

B1: CitAP-BsLA (enzyme)
chain: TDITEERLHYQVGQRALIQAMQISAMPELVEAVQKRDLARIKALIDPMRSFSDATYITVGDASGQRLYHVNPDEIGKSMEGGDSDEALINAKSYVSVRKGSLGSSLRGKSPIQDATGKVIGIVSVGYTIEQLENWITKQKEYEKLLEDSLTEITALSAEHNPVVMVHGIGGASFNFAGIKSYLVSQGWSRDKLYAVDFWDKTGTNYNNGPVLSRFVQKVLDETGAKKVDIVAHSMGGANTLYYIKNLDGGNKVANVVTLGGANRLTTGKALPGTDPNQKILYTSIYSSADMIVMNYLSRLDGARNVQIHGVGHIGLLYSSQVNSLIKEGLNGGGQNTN
Regarding B1, the Kd in “SAXS” is 24 µM and 29 µM. Also, in data set [2], the “stoichiometry N” value stood at 2.
